Laboratory results taken from patent US20240182575A1 (Ablynx, published 2024).
Each block holds one binder with its values, some of them ahead of it.

Columns and labels:
[1] = molecular target: T1, HuCD86-HuIgG1 (fusion protein of the extracellular part of human CD86 and human Fc gamma 1, R&D Systems Cat … (human, UniProt P42081 24-247)); assay: SPR, Biacore 3000, antigen amine-coupled
T1 construct: extracellular domain; bought; also called CD86-IgG1; CD86-Ig; not shown: human Fc gamma 1
T1 sequence (looked up): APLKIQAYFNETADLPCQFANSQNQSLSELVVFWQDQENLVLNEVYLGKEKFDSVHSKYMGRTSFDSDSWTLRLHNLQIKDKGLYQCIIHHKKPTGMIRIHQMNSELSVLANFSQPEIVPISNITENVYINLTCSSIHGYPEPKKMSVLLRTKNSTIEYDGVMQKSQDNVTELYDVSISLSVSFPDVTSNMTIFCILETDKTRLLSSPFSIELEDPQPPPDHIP
Protocol: (§1) Affinity constants (Kd) of individual purified Nanobody clones were determined by surface plasmon resonance on a Biacore 3000 instrument. […] Remaining reactive groups were inactivated using ethanolamine. Nanobody binding was assessed at 1 and 0.1 microM. Each sample was injected for 4 min at a flow rate of 45 μl/min to allow for binding to chip-bound antigen. Next, binding buffer without Nanobody was sent over the chip at the same flow rate to allow for dissociation of bound Nanobody. After 2 min, remaining bound analyte was removed by injecting regeneration solution (50 mM NaOH or Glycine/HCl pH 1.5). Binding curves obtained at different concentrations of Nanobody were used to calculate Kd values.

[2] = molecular target: T2, HuCD80-HuIgG1 (fusion protein of the extracellular part of human CD80 and human Fc gamma 1, R&D Systems Cat … (human, UniProt P33681 35-242)); assay: SPR, Biacore 3000, antigen amine-coupled
T2 construct: extracellular domain; bought, produced in NS0 cells; also called CD80-IgG1; CD80-Ig; not shown: human Fc gamma 1
T2 sequence (looked up): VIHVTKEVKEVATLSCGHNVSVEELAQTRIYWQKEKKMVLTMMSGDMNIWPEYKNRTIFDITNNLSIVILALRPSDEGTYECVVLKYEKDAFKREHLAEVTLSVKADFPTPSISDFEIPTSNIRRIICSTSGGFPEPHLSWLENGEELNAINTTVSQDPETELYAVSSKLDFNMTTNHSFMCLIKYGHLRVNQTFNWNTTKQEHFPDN
Protocol: as §1

[3] = molecular target: T3, HuCD80-MuIgG2a (extracellular (173aa) domain of human CD80 fused to murine IgG2a Fc+hinge (232 aa), Ancell … (human; mouse, UniProt P33681 35-242); assay: competition ELISA, coated CD80-Ig; blocked ligand CD28-Ig
T3 construct: extracellular domain; bought, produced in CHO cells; also called B7-1-muFc; not shown: murine IgG2a Fc+hinge (232 aa)
T3 sequence (looked up): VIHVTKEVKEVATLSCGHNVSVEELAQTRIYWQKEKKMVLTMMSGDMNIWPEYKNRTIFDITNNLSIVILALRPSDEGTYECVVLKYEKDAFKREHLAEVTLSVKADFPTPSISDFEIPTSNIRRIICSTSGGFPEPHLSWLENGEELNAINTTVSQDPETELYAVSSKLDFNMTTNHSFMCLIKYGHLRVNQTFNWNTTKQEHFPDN
Protocol: Inhibition was determined based on OD values of controls having received no Nanobody (high control) or no CD28- or CTLA4-HuIgG1 fusion protein (low control).

[4] = molecular target: T4, HuCD86-MuIgG2a (fusion protein of the extracellular part of human CD86 and mouse Fc gamma 2a, Ancell Cat … (human; mouse, UniProt P42081 24-247; P01863 98-330 = IgG part); assay: competition ELISA, coated CD86-Ig; blocked ligand CD28-Ig
T4 construct: extracellular domain;domain: Fc; bought; also called B7-2

[5] = molecular target: T5, human CTLA4 (Y201 mutated to valine) on stably transfected CHO-K1 cells (human, UniProt P16410 36-223); assay: FACS, direct binding titration on human CTLA4 CHO cells (head prints IC50)
T5 construct: whole, on cells; the mutation of the intracellular position Y201 keeps the protein on the membrane; also called human CTLA4 overexpressing CHO cells; human CTLA4 transfectant
Protocol: (§2) Binding of putative CTLA4 reactive Nanobodies clones was detected using unlabeled anti-c-myc tag mouse monoclonal antibody 9E10, followed by a phycoerythrin conjugated F(ab′)2 derived from goat-anti-mouse IgG (human and bovine crossabsorbed), and read on a BD FACSarray instrument. Dead cells were excluded from the analysis by gating out TOPRO3 vital dye positive scoring cells. Binding of the Nanobodies to cells was evaluated in BD FACSarray control software as PE channel histograms.

[6] = molecular target: T6, HuCTLA4-HuIgG1 (fusion protein of the extracellular part of human CD152 and human Fc gamma 1, CTLA4-Ig) (human, UniProt P16410 36-161); assay: SPR, Biacore T100, CTLA4-Ig amine-coupled
T6 construct: extracellular domain; also called CTLA4-hFc; CTLA4-Fc; not shown: human Fc gamma 1
Protocol: Affinity constants (Kd) of individual purified Nanobody clones were determined by surface plasmon resonance on a Biacore T100 instrument. […] Remaining reactive groups were inactivated using ethanolamine. […] Each sample was injected for 2 min at a flow rate of 45 μl/min to allow for binding to chip-bound antigen. Next, binding buffer without Nanobody was sent over the chip at the same flow rate to allow for dissociation of bound Nanobody. After 2 min, remaining bound analyte was removed by injecting regeneration solution (10 mM Glycine/HCl pH 1.5). Binding curves obtained at different concentrations of Nanobody were used to calculate KD values. For some clones, only a single undetermined concentrations of Nanobody was injected.

[7] = molecular target: T5, human CTLA4 (Y201 mutated to valine) on …; assay: FACS competition, human CTLA4 CHO cells; blocked ligand CD80-Fc
Text: (§3) The potency of selected Nanobodies to inhibit the interaction of CTLA4 with CD80 was also ranked using FACS based screening method. […] This concentration was previously determined to be the minimal amount required to saturate all CD80 binding sites on both human and cyno CTLA4 expressing CHO cell clones in the absence of any CTLA4 interaction blocking proteins. […] Dead cells were stained by including TOPRO3 vital dye in the final resuspension buffer. All samples were read on a BD FACSarray instrument. Dead cells were excluded from the analysis by gating out TOPRO3 vital dye positive scoring cells.

[8] = molecular target: T7, cynomolgus monkey CTLA4 on stably transfected CHO-K1 cells (human CTLA4 cDNA with S13N, I17T and L105M) (human backbone with cynomolgus monkey …, UniProt P16410 36-223); assay: FACS, direct binding titration on cyno CTLA4 CHO cells (head prints IC50)
T7 chain: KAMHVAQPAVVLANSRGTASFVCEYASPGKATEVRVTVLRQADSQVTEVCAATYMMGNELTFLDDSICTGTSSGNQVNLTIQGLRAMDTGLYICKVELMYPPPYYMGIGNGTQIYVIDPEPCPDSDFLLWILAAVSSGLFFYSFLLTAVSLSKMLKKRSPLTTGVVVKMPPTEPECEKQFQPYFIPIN

[9] = molecular target: T6, HuCTLA4-HuIgG1 (fusion protein of the …); assay: alphascreen; competitor biotinylated HuCD80-MuIgG2a
Text: Individual clones were scored as putative CTLA4/CD80 interaction inhibiting if the presence of the periplasmic extract decreased the fluorescent signal of the acceptor beads.

[10] = molecular target: T5, human CTLA4 (Y201 mutated to valine) on …; assay: competition FACS on human CTLA4 CHO cells; competitor HuCD80-HuIgG1 10 nM
Text: as §3

[11] = molecular target: T8, rhB7-H2-Fc (fusion protein of the extracellular part of human B7-H2 (ICOSL) and mouse Fc gamma 1, R&D Systems … (human; mouse, UniProt O75144 19-256; P01868 98-324 = IgG part, limits assumed); assay: competition ELISA, periplasmic extract, coated B7-H2; blocked ligand ICOS-biotin
T8 construct: extracellular domain;domain: Fc; bought; also called B7-H2 ectodomain
Protocol: Binding specificity was determined based on OD values compared to controls having received no Nanobody (high control).
After expression, the Nanobodies were purified via the His-tag on Talon beads.

[12] = molecular target: T9, human CD28 on Jurkat cells (human, UniProt P10747 19-220); assay: FACS, Jurkat cells
T9 construct: whole, on cells; also called native form of the CD28 antigen; cell expressed CD28
Protocol: as §2, with “CD28” for “CTLA4”

[13] = molecular target: T10, HuCD28-HuIgG1 (fusion protein of the extracellular part of human CD28 and human Fc gamma 1, R&D Systems Cat … (human, UniProt P10747 19-152; P01857 100-330 = IgG part); assay: competition ELISA, periplasmic extract, CD28-hFc in solution; blocked ligand coated B7-1-muFc
T10 construct: extracellular domain;domain: Fc; bought; also called CD28-Ig; hCD28-Fc
Text: This mixture was applied on the coated B7-1 and CD28 was allowed to bind to the immobilized B7-1.

[14] = molecular target: T6, HuCTLA4-HuIgG1 (fusion protein of the …); assay: competition ELISA, CTLA4-hFc in solution; blocked ligand coated B7-1-muFc
[15] = molecular target: T6, HuCTLA4-HuIgG1 (fusion protein of the …); assay: competition ELISA, CTLA4-hFc in solution; blocked ligand coated B7-2-muFc
[16] = molecular target: T6, HuCTLA4-HuIgG1 (fusion protein of the …); assay: competition ELISA, CTLA4-hFc in solution; blocked ligand coated B7-1-muFc; remark: listed apart in the source
Protocol: In order to determine B7-1 competition efficiency of CTLA4 binding Nanobodies, the purified clones were tested in an ELISA competition assay setup.

Kd [1]: 553 nM | koff [1]: 0.002 s⁻¹ | kon [1]: 3600 M⁻¹ s⁻¹ | Kd [2]: 23 nM | koff [2]: 0.0004 s⁻¹ | kon [2]: 18000 M⁻¹ s⁻¹ | IC50 (read off the curve) [3]: ~400 nM | IC50 (read off the curve) [4]: ~10 nM
B1: CD8086PMP1E11 (VHH)
VHH: EVQLVESGGGLVQPGGSLRLSCAASGFTLDYSAIGWFRQAPGKEREGVSYISSSDGSTYYADSVEGRFTISRDNAKNTLYLQMNSLKPEDTAVYYCAAGGPFTVSTMPWLANYWGQGTQVTVSS
notes: not shown: C-terminal c-myc tag and His6 tag

IC50 [5]: 2.38 nM | Kd [6]: 0.466 nM | koff [6]: 0.00266 s⁻¹ | kon [6]: 5.69e+06 M⁻¹ s⁻¹ | IC50 (read off the curve) [7]: ~10 nM | IC50 [8]: 2.36 nM | IC50 [9]: 0.827 nM | IC50 [10]: 11.4 nM
B2: 4CTLAPMP02F4 (VHH)
VHH: EVQLVESGGGLVQTGGSLRLSCAASGRTFSNYTMGWFRQAPGKDREFVAAISRSGALKAYADSVKGRFTPSRDNAKKMAYLQMNSLKPEDTAVYYCAAAPVPWGTRPSFFPYDSWGQGTQVTVSS
notes: short label tied to the entry by the clone code only; not shown: C-terminal c-myc tag and His6 tag

binding result [11]: binds
B3: 95G6 (VHH)
VHH: EVQLVESGGALVQPGGSLRLSCAASGFTLGDYVIGWFRQAPGKEREWVSGISSRDGTTYYADSVKGRFTISRDNAKNTMYLQMNSLKPEDTAVYYCALRSGIAVARAPSNYDYWGQGTQVTVSS
notes: Nanobody against B7-H2 (ICOSL)

IC50 [5]: 4.55 nM | Kd [6]: 10 nM | koff [6]: 0.0187 s⁻¹ | kon [6]: 1.86e+06 M⁻¹ s⁻¹ | IC50 [8]: 5.51 nM | IC50 [9]: 1.04 nM | IC50 [10]: 36.4 nM
B4: 4CTLAPMP11F1 (VHH)
VHH: EVQLVESGGGLVQAGGSLRLSCAASGGTFSFYGMGWFRQAPGKEQEFVADIRTSAGRTYYADSVKGRFTISRDNAKNTVYLQMNSLKPEDTAVYYCAAEMSGISGWDYWGQGTQVTVSS
notes: short label tied to the entry by the clone code only; also called 11F1 WT; not shown: C-terminal c-myc tag and His6 tag

binding result [12]: binds | binding result [13]: binds
B5: 65G2 (VHH)
VHH: EVQLVESGGGLVQPGGSLRLSCAASGFTLDAYAIHWFRQAPGKEREGVSCISSSDGSTYYANSVKGRFTISRDNAKNAVYLQMNSLKPEDTAVYYCATAKRCWGLSYEYDYWGQGTQVTVSS
notes: Nanobody against CD28

IC50 (read off the curve) [14]: ~100 nM | IC50 (read off the curve) [15]: ~200 nM | IC50 (read off the curve) [16]: ~100 nM
B6: 65H7 (VHH)
VHH: EVQLVESGGGLVQPGGSLRLSCAASGSILSIAVAGWYRRQPGKERELVATISPGNNTHYVDSVKGRFTISRDNAKNTVYLQMTTLKPDDTAAYYCNAKGSILLNAFDYWGKGTQVTVSS
notes: Nanobody against CTLA4; also called 65H7 (4-1)
